Laboratory results: US12102667B2, “Polypeptides and antibiotics against gram-negative bacterium comprising the same” (priority 2021, dated 2024)

How the values were obtained:
K. pneumoniae [1] = test: MIC, broth microdilution; type: cell-based, Klebsiella pneumoniae
Protocol: (§1) The MIC of the LNT113 or antibiotic was determined using modification of the broth microdilution method in a 96-well, round bottom, microplate according to the previously described method (Heselpoth et al., 2019). Exponentially grown cells were diluted to a concentration of 10^6 CFU/ml in a CAA medium, and then cultured with recombinant LNT113 (1-64 μg/ml) or antibiotics at 35° C. for 20 hours. […] The MBC was defined as the lowest concentration of the antibacterial agent with no growth on a plate. All analyses were performed in duplicate.

K. pneumoniae [2] = test: Antibacterial activity analysis (colony count after 2 hours in buffer); type: cell-based, Klebsiella pneumoniae; conditions: 2 μM
Protocol: (§2) The antibacterial activity of the purified protein was tested for E. coli and various K. pneumoniae strains. The bacterium were grown to an exponential phase (OD600=0.5) and harvested by centrifugation at 12,000×g for 3 minutes. Then, the pellets were washed with reaction buffer solution (20 mM Tris-HCl, pH 7.5) and diluted to about 10^6 cells/ml in the buffer solution. Then, 100 μl bacterial suspension was mixed with the purified endolysin of 100 μl in the reaction buffer solution and incubated at 37° C. for 2 hours. Finally, the mixture was diluted with PBS and loaded on an LB plate. After culturing at 37° C. overnight, the bacterial colonies were counted. All the analysis was performed in triplicate.
(§3) The same reaction was performed for the selected subject bacterium in 20 mM HEPES-NaOH, 150 mM NaCl [pH 7.4], and the unique antibacterial activity of Tris and dependence of endolysin for turgor pressure were excluded (FIG. 10a and FIG. 10b). […] The bacterial cells grown geometrically were cultured with 2 μM endolysin in low tonicity buffers (20 mM Tris-HCl, pH 7.5 or 20 mM HEPES, pH 7.5) or high tonicity buffers (buffer solution comprising 150 mM NaCl) at 37° C. for 2 hours. The cells treated with storage buffer solution (20 mM Tris-HCl, pH 7.5, 150 mM NaCl buffer solution (pH 7.5)) were used as a negative control group. The dotted line represents the detection limit (1 Log CFU/ml).

K. acrogenes = test: MIC, broth microdilution; type: cell-based, Klebsiella aerogenes
Protocol: as §1

[3] = tested on: various gram-negative bacterium; test: MIC, summary over Table 4 strains; type: cell-based; conditions: strains of Table 4
Protocol: as §1

E. coli ATCC 8739 = test: 1-N-phenylnaphthylamine (NPN) absorption analysis, outer membrane permeability; type: cell-based, Escherichia coli; conditions: 2 μM
Protocol: NPN absorption analysis was performed by the previously described method (Helander and Mattila-Sandholm, 2000). In other words, E. coli ATCC 8739 grown to an exponential phase (OD600=0.4) was washed and resuspended with buffer solution (5 mM HEPES, pH 7.2) to about 10^8 cells/ml. 40 μM NPN (Sigma-Aldrich) 50 μl was mixed with the purified endolysin or Cecropin A (AbClon, Korea) 50 μl so that the final concentration was 2 μM in a 96-well black plate. Outer membrane permeation agents, 1 mM EDTA (Duchefa) and 2 μM Polymyxin B (Sigma-Aldrich) were used as a positive control group. Then, cell suspension 100 μl was added to each well, and cultured at 37° C. for 5 minutes. Buffer alone, buffer+NPN, cell suspension+buffer and cell suspension+buffer+NPN were used as a negative control group. Fluorescence was measured at excitation (350 nm) and emission (420 nm) using a microplate reader (SpectraMax iD3, Molecular Devices, USA). An NPN absorption factor was calculated by dividing the fluorescence value after background removal (the value that the value without NPN subtracted from the fluorescence value of the cell mixture with the sample) with the fluorescence value of the cell suspension with buffer subtracted from the fluorescence value of buffer without NPN.

Salmonella typhimurium = test: MIC, broth microdilution; type: cell-based
Protocol: as §1

Salmonella enteritidis = test: MIC, broth microdilution; type: cell-based
Protocol: as §1

E. cloacae = test: MIC, broth microdilution; type: cell-based, Enterobacter cloacae
Protocol: as §1

E. coli = test: Antibacterial activity analysis (colony count after 2 hours in buffer); type: cell-based, Escherichia coli
Protocol: as §2, §3
For this, endolysin EC340 at a concentration of 2 μM and each test bacterium were added to reaction buffer (20 mM Tris-Cl, pH 7.5) so that the final concentration was to be 200 μl, and were left at 37° C. for 2 hours. After 2 hours, the number of colonies of Acinetobacter baumannii, Pseudomonas aeruginosa and Escherichia coli was confirmed, and the result was shown in FIG. 3.

P. aeruginosa = test: MIC, broth microdilution; type: cell-based, Pseudomonas aeruginosa
Protocol: as §1

A. baumannii = test: MIC, broth microdilution; type: cell-based, Acinetobacter baumannii
Protocol: as §1

B1: LNT113: fusion polypeptide: Cecropin A, (GGGGS)3 linker, mutant endolysin mtEC340; recombinant form with C-terminal His tag (protein)
chain: MKWKLFKKIEKVGQNIRDGIIKAGPAVAVVGQATQIAKGGGGSGGGGSGGGGSVSRNISNNGIKFTAAFEGFRGTAYRATPNEKYLTIGYGSYGPHVEPGKTITPGQGLLLLNRDMAKAVAAVDAVAHHSLTQSQFDAVCDLVYNAGAGVIAAATGTGKALRSGDVATLRAKLALFINQNGKPLLGLRRRTAGRLALFDGKPWQEAEAIGRAVKG
modifications: synthetic_Met+Cecropin A+GGGGS3 linker+mtEC340
notes: fusion polypeptide: Cecropin A, (GGGGS)3 linker, mutant endolysin mtEC340; recombinant form with C-terminal His tag
- MIC (K. pneumoniae [1]; K. pneumoniae ATCC 700603): 16 µg/mL
- MIC (K. pneumoniae [1]; K. pneumoniae CCARK 10143): 4 µg/mL
- MIC (K. pneumoniae [1]; K. pneumoniae F144): 16 µg/mL
- MIC (K. pneumoniae [1]; K. pneumoniae Fil8): 16 µg/mL
- MIC (K. pneumoniae [1]; K. pneumoniae KCTO 2208): 8 µg/mL
- MIC (K. pneumoniae [1]; K. pneumoniae P1O4): 16 µg/mL
- antibacterial activity (number of bacterium) (K. pneumoniae [2]; K. pneumoniae ATCC700603, KCTC2208, CCARM10143, F85, 2 hours, Tris-HCl pH 7.5): more excellent antibacterial activity
- effect of adding NaCl on antibacterial activity (K. pneumoniae [2]; K. pneumoniae KCTC 2208, Tris or Hepes buffer with 150 mM NaCl): negative effect of salt presence was significantly reduced
- increase in activity compared to mtEC340 (K. pneumoniae [2]; K. pneumoniae strains, 2 hours): ≤ 4 log
- viable bacterial cells after culturing for 2 hours (K. pneumoniae [2]; all tested K. pneumoniae strains): No viable bacterial cells were detected
- MIC (K. acrogenes; K. acrogenes CCARM 16006): 16 µg/mL
- MIC (K. acrogenes; K. acrogenes CCARM 16008): 8 µg/mL
- MIC (K. acrogenes; K. acrogenes CCARM 16010): 8 µg/mL
- MIC range [3]: 4 to 32 µg/mL
- increase of membrane penetration (NPN) (E. coli ATCC 8739): 1.8 times
- membrane penetration relative to cecropin A alone (NPN) (E. coli ATCC 8739): 1.3 fold
- MIC (Salmonella typhimurium): > 64 µg/mL
- MIC (Salmonella enteritidis): > 64 µg/mL
- MIC (E. cloacae; E. cloacae ATCC 13047): 16 µg/mL
- MIC (E. cloacae; E. cloacae CCARM 0252): 4 µg/mL
- MIC (E. cloacae; E. cloacae CCARM 16003): 8 µg/mL
- antibacterial activity (number of bacterium) (E. coli; E. coli ATCC8739, ATCC25922, CCARM1A746, CCARM1B684, 2 μM, 2 hours, Tris-HCl pH 7.5): more excellent antibacterial activity
- effect of adding NaCl on antibacterial activity (E. coli; E. coli ATCC 8739, 2 μM, Tris or Hepes buffer with 150 mM NaCl): negative effect of salt presence was significantly reduced
- dose and time dependence of antibacterial activity (E. coli; E. coli ATCC 8739, 0.1-2.7 μM, 0.5 μM over time): antibacterial activity according to dose and time
- antibacterial activity compared to Cecropin A and/or mtEC340 (E. coli; E. coli ATCC8739, final concentration of 0.5 mM): enhanced antibacterial activity
- increase in activity compared to mtEC340 (E. coli; E. coli strains, 2 μM, 2 hours): ≤ 4 log
- viable bacterial cells after culturing for 2 hours (E. coli; all tested E. coli strains, 2 μM): No viable bacterial cells were detected
- amount of bacterial cells after treatment (E. coli; colistin-resistant E. coli FORC81, 2 μM, 2 hours): below the detection limit
- MIC (P. aeruginosa; P. aeruginosa ATCC 15522): 8 µg/mL
- MIC (P. aeruginosa; P. aeruginosa F102): 16 µg/mL
- MIC (P. aeruginosa; P. aeruginosa F125): 4 µg/mL
- MIC (P. aeruginosa; P. aeruginosa F141): 16 µg/mL
- MIC (P. aeruginosa; P. aeruginosa F171): 32 µg/mL
- MIC (P. aeruginosa; P. aeruginosa F388): 32 µg/mL
- MIC (P. aeruginosa; P. aeruginosa PA01): 4 µg/mL
- MIC (A. baumannii; A. baumannii ATCC (first ATCC line, number not given)): 8 µg/mL
- MIC (A. baumannii; A. baumannii ATCC (second ATCC line, number not given)): 16 µg/mL
- MIC (A. baumannii; A. baumannii CCARM): 8 µg/mL
- MIC (A. baumannii; A. baumannii F4): 4 µg/mL
- MIC (A. baumannii; A. baumannii F65): 8 µg/mL
- MIC (A. baumannii; A. baumannii F66): 8 µg/mL
- MIC (A. baumannii; A. baumannii F67): 8 µg/mL
